# Experimental data taken from patent US20150183847A1.
# Target: interleukin-1 receptor (human (CHO-derived cells) or murine (EL4 cells); not stated which gave the tables) (UniProt P14778)
# Experiment: competition with 35S-IL-1Ra on IL-1 receptor cells, Kd=IC50/2
substance,measurement,value
wild-type human IL-1Ra (from UniProt P18510 26-177),Kd,0.15 to 0.4 nM
